Measured values from the RNAGym collection of RNA variant scans (doi:10.7554/elife.80360).

B1: HDV Ribozyme (parent)
chain: GGCCGGCAUGGUCCCAGCCUCCUCGCUGGCGCCGGCUGGGCAACAUUCCGAGGGGACCGUCCCCUCGGUAAUGGCGAAUGGGACCCA

Variants of: B1
Assay: self-cleavage, relative activity (ratio to wild type); higher = more cleavage; co-transcriptional
Variant C44A A78U has a self-cleavage of 0.104. In the case of C44A A78G, the self-cleavage is reported as 0.175. Work on A43G A56G yielded a self-cleavage of 0.26. For A43G A77G, the self-cleavage was 0.332. In the case of A43G A77C, the self-cleavage is reported as 0.0723. Variant A43G C49G has a self-cleavage of 0.344. Variant A43G C63U has a self-cleavage of 0.615. In the case of A43G A78C, the self-cleavage is reported as 0.0415. A43G A78U gave a self-cleavage of 0.178. A43U G81U gave a self-cleavage of 0.16. In the case of A43U G81A, the self-cleavage is reported as 0.148. With A43G G52U the self-cleavage was 0.742. In the case of A43U C63U, the self-cleavage is reported as 0.554. A43U C86A showed a self-cleavage of 0.554. Variant C44A C62A has a self-cleavage of 0.708. C44A C62U showed a self-cleavage of 0.723. In the case of C44A C62G, the self-cleavage is reported as 0.162. Variant A43U C44U has a self-cleavage of 1.07. Variant A43U C44G has a self-cleavage of 0.739. For A43G G81A, the self-cleavage was 0.0941. With C44A C84A the self-cleavage was 0.541. For C44A C84G, the self-cleavage was 0.0519. A43U A71C showed a self-cleavage of 0.543. Variant A43U A71U has a self-cleavage of 0.565. With A43G U79G the self-cleavage was 0.199. Variant A43G U79C has a self-cleavage of 0.0941. For A43G U65C, the self-cleavage was 0.522. Variant A43G C62A has a self-cleavage of 0.554. Variant A43U G53A has a self-cleavage of 0.407. For A43U G53U, the self-cleavage was 0.492. In the case of A43U U72A, the self-cleavage is reported as 0.194. In the case of A43U U72G, the self-cleavage is reported as 0.256. Work on A43U G67A yielded a self-cleavage of 0.237. For A43U G67U, the self-cleavage was 0.499. Variant A43U G67C has a self-cleavage of 0.354. With A43U C64A the self-cleavage was 0.397. With C44A C48U the self-cleavage was 0.692. In the case of C44A C48G, the self-cleavage is reported as 0.594. Variant A43U G54C has a self-cleavage of 0.196. In the case of A43U G54U, the self-cleavage is reported as 0.432. Variant A43G C64G has a self-cleavage of 0.644. Variant A43G C64U has a self-cleavage of 0.657. Work on A43G G67U yielded a self-cleavage of 0.527. With A43G G67A the self-cleavage was 0.804. A43U G68A gave a self-cleavage of 0.408. In the case of A43U G68C, the self-cleavage is reported as 0.198. With A43U A77G the self-cleavage was 0.277. In the case of A43U A77U, the self-cleavage is reported as 0.151. A43U G74U showed a self-cleavage of 0.684. With A43U G74A the self-cleavage was 0.261. A43U G82C showed a self-cleavage of 0. With A43U G82U the self-cleavage was 0.0923. With A43G G73A the self-cleavage was 0.219. For C44A C63U, the self-cleavage was 0.973. C44A C63G gave a self-cleavage of 0.831. C44A A45G showed a self-cleavage of 1.01. C44A A45U showed a self-cleavage of 0.95. For A43U U65C, the self-cleavage was 0.298. A43U U65A gave a self-cleavage of 0.584. In the case of A43G U72G, the self-cleavage is reported as 0.554. A43G A83G showed a self-cleavage of 0.215. In the case of A43U A56C, the self-cleavage is reported as 0.374. A43U A56U showed a self-cleavage of 0.475. Work on A43U U60C yielded a self-cleavage of 0.678. For A43U U60G, the self-cleavage was 0.394. C44A G59U showed a self-cleavage of 0.776. A43G C86U showed a self-cleavage of 0.739. In the case of C44A, the self-cleavage is reported as 0.764. Variant A43U U69G has a self-cleavage of 0.199. A43U U69A gave a self-cleavage of 0.449. A43U C66G gave a self-cleavage of 0.47. For A43U A78C, the self-cleavage was 0.0817. A43G A70U showed a self-cleavage of 0.743. With A43G A70C the self-cleavage was 0.9. With A43G C48A the self-cleavage was 0.81. C44A C75G showed a self-cleavage of 0.369. Variant A43G G68A has a self-cleavage of 0.665. Variant A43G G68C has a self-cleavage of 0.253. For A43U, the self-cleavage was 0.546. C44A C64A showed a self-cleavage of 0.665. Variant C44A C64G has a self-cleavage of 0.814. Work on A43G U47A yielded a self-cleavage of 0.383. In the case of C44A C58G, the self-cleavage is reported as 0.831. Work on A43U A83G yielded a self-cleavage of 0.0986. Work on A43G A51C yielded a self-cleavage of 0.745. For A43G A51U, the self-cleavage was 0.646. A43G A71G showed a self-cleavage of 0.68. In the case of C44A G50A, the self-cleavage is reported as 0.671. Work on C44A G50U yielded a self-cleavage of 0.594. In the case of A43U A51U, the self-cleavage is reported as 0.332. In the case of A43U A51C, the self-cleavage is reported as 0.525. Variant A43U A51G has a self-cleavage of 0.911. Work on C44A G53U yielded a self-cleavage of 0.929. C44A G53A gave a self-cleavage of 0.831. Variant A43G G55A has a self-cleavage of 0.566. Work on C44A C49A yielded a self-cleavage of 0.554. In the case of C44A C49G, the self-cleavage is reported as 0.511. Work on C44A C49U yielded a self-cleavage of 0.462. In the case of A43U A45G, the self-cleavage is reported as 0.57. Work on A43U G52A yielded a self-cleavage of 0.561. C44A A83C gave a self-cleavage of 0.269. For C44A A83U, the self-cleavage was 0.0615. Work on A43U U47A yielded a self-cleavage of 0.271. A43U U47C showed a self-cleavage of 0.554. For A43G C44A, the self-cleavage was 0.684. In the case of C44A G55A, the self-cleavage is reported as 0.554. For A43U G50C, the self-cleavage was 0.492. C44A G67C showed a self-cleavage of 0.712. In the case of A43U G59A, the self-cleavage is reported as 0.633. In the case of A43U C58A, the self-cleavage is reported as 0.614. With A43U C58G the self-cleavage was 0.7. In the case of A43U C57A, the self-cleavage is reported as 0.69. A43G U60G showed a self-cleavage of 0.755. Work on A43G U60A yielded a self-cleavage of 0.594. Variant A43G G74C has a self-cleavage of 0.0791. A43G G74U showed a self-cleavage of 0.243. C44A G52A gave a self-cleavage of 0.776. With C44A G52U the self-cleavage was 0.913. A43G G53U gave a self-cleavage of 0.577. A43G G53C gave a self-cleavage of 0.554. Variant A43U G76U has a self-cleavage of 0.307. A43U G76C gave a self-cleavage of 0.181. A43G C84U showed a self-cleavage of 0.426. In the case of A43U C75U, the self-cleavage is reported as 0.128. For A43U C75A, the self-cleavage was 0.0755. With A43U C61G the self-cleavage was 0.528. C44A C57G gave a self-cleavage of 0.684. In the case of C44A C57A, the self-cleavage is reported as 0.752. Variant A43G G59U has a self-cleavage of 0.601. For A43G G59C, the self-cleavage was 0.637. Work on C44A G54A yielded a self-cleavage of 0.759. Variant C44A G54C has a self-cleavage of 0.618. Variant C44A G54U has a self-cleavage of 0.794. For A43U C49U, the self-cleavage was 0.554. A43U C49A showed a self-cleavage of 0.755. Work on A43U C49G yielded a self-cleavage of 0.516. Variant C44A C66A has a self-cleavage of 0.628. C44A C66G gave a self-cleavage of 0.898. For A43G G82C, the self-cleavage was 0.131. Work on A43U C48U yielded a self-cleavage of 0.608. Work on A43U C84G yielded a self-cleavage of 0.146. For C44A A71U, the self-cleavage was 0.81. Variant A43G A87U has a self-cleavage of 0.554. With A43U A87G the self-cleavage was 0.274. With A43U A87C the self-cleavage was 0.314. Work on C44A C61A yielded a self-cleavage of 0.618. C44A C61G showed a self-cleavage of 0.608. C44A C61U gave a self-cleavage of 0.758. A43U U46G gave a self-cleavage of 0.185. With A43U U46C the self-cleavage was 0.383. C44A A77C showed a self-cleavage of 0.128. In the case of C44A A77G, the self-cleavage is reported as 0.396. C44A A77U gave a self-cleavage of 0.203. Work on A43G G80U yielded a self-cleavage of 0.0916. A43G G80A gave a self-cleavage of 0.115. C44A A87C showed a self-cleavage of 0.74. With C44A C86G the self-cleavage was 0.787. Work on A43U G80U yielded a self-cleavage of 0.173. A43U G80C gave a self-cleavage of 0.115. In the case of A43U G80A, the self-cleavage is reported as 0.0237. For C44A A51C, the self-cleavage was 0.779. Variant A43G C61U has a self-cleavage of 0.739. A43G C61A gave a self-cleavage of 0.499. With A43G U46A the self-cleavage was 0.782. For A43G G54A, the self-cleavage was 0.378. With A43G C66A the self-cleavage was 0.554. For C44A A56C, the self-cleavage was 0.853.
